Test [1] relates to antibody to recombinant proteins. Briefly: Pre-challenge antibody titer ELISA, trial with Ac-ASP-2, Ac-API, Ac-MEP-1, Ac-APR-1 in AS03. Format: in vivo, dog. The note with it: for antibody response, in words: AS03. As for the experimental part:
(§1) The vaccine trial was designed to test Ac-API, Ac-ASP-2, Ac-MEP-1, Ac-APR-1 formulated with Adjuvant System 03 (AS03) obtained from GlaxoSmithKline (GSK). The rationale for selecting AS03 as an adjuvants is discussed elsewhere (Stoute et al, 1997). The ten purpose bred beagles were randomized into five arms: immunized with the adjuvant-formulated recombinant proteins or adjuvant only (control). To make six doses of antigen formulated with AS03, […] of recombinant protein (0.3 ml of antigen at a concentration of 2 mg.ml^−1) was mixed with 1.2 ml of 20 mM Tris-HCl, 0.5 M NaCl, pH 7.9 and 1.5 ml of AS03; the contents of the tube were vortex mixed for 30 seconds then shaken at low speed for 10 minutes. Dogs were immunized with 100 g of formulated antigen in a final volume of 0.5 ml. ASO3 only control was prepared as described above, with PBS included instead of antigen. Formulation of GSK adjuvants were conducted according to the protocol provided by GSK. All injections were performed intramuscularly (IM). Test and control articles were prepared on the day of injection. All animals received 4 immunizations approximately 3 weeks apart.
Beagles were immunized with formulated Ac-ASP-2 as previously described (Loukas et al, 2004). The vaccines were administered IM three times beginning at age 62+/−4 days. Boosts were administered to the dogs at intervals of 21 days. Blood was drawn at least once every 21 days and serum was separated from cells by centrifugation. Each animal's specific antibody response was evaluated by indirect ELISA using serum taken prior to the infective challenge (Loukas et al, 2004). Recombinant Ac-ASP-2 was coated onto microtiter plates at a concentration of 5 g.ml^−1. Dog sera were titrated between 1:100 and 1:2×10^6 to determine endpoint titers. Anti-canine IgG1, IgG2 and IgE antibodies conjugated to horse-radish peroxidase (Bethyl Laboratories) were used at a dilution of 1:1,000.

The test system of test [2] is A. caninum. Put plainly: Canine vaccine trial with Ac-ASP-2, Ac-API, Ac-MEP-1, Ac-APR-1 in AS03, footpad challenge with 500 A. caninum L3. Format: in vivo, dog. The conditions noted are these: for worm burdens, Maximum / worm burdens, Minimum / worm burdens, Mean / worm burdens, Median: 5 dogs; for worm burdens, Mean: ASO3 control 203.8000; for worm burdens, Median: ASO3 control 215.0000; for worm burden, Colon, Male, Average / worm burden, Colon, Female, Average / worm burden, Intestine, Female, Average / worm burden, Intestine, Male, Average / worm burden, Total, Average: group average; for worm burden, Colon, Male, Average: AS03 control 5; for worm burden, Colon, Female, Average: AS03 control 9; for worm burden, Intestine, Female, Average: AS03 control 95; for worm burden, Intestine, Male, Average: AS03 control 96; for worm burden, Total, Average: AS03 control 204; for worm burden, Colon, Female / worm burden, Colon, Male / worm burden, Intestine, Female / worm burden, Intestine, Male / worm burden, Total: individual dogs. The method, then:
as §1, with “The ten purpose bred beagles were randomized into five arms: immunized with the adjuvant-formulated recombinant proteins or adjuvant only (control).” left out
A. caninum larvae were cultured from eggs collected in the feces of infected dogs. All hookworms in the infective challenge were approximately equal age (17±7 days post hatching). The species identity of the infective larvae were validated using PCR. All dogs were infected by the footpad method with the same dose of 500 L3 of A. caninum (Zhan et al, 2001). Larval challenge occurred on one of three consecutive days (at age 120+/−9 days). Fourteen-sixteen days after the final immunization, dogs were anesthetized using a combination of ketamine and xylazine (20 mg.kg^−1 and 10 mg.kg^−1 respectively), and 500 A. caninum L3 in a final volume of […] were applied to the footpad.

Where “and” joins values, the source holds several entries; their conditions need not be identical. Equal values may be shown once.

B1: Ac-API: A. caninum aspartyl protease inhibitor antigen, SEQ ID NO: 38 (protein, listed as Ancylostoma caninum)
chain: MKLLALSALFALAFAAPRDKRLAVSTITVTGGLGLSTGCVVTGNVLYANGFRVREITPSEQQELVKYQNDVAEYKTALKQAIKEREEKIRARLAGKKVKAVESTNQEDLPKPPQKPSFCTPEDTTQFFFEGCMIQNNKIYVGNTFARDLTQPEISELKEFEKKFKVYQDYVQKQAEQQVNSLFGGSDFFSALFSGGETSKPSTTTVAPELPEDAPEQPPTPNFCTRII
On to B1, for which, in test [1], the “antibody response, in words” value was “robust”. Besides, in test [1] (geometric mean of group), the “Pre-challenge antibody titer, IgE, GEOMEAN” value is 100; the “Pre-challenge antibody titer, IgG1, GEOMEAN” value is given as 3,612; the “Pre-challenge antibody titer, IgG2, GEOMEAN” value is 32,511. In test [1] (individual dogs), the “Pre-challenge antibody titer, IgE” value was found to be 100; the “Pre-challenge antibody titer, IgG1” value is 4,500 (4×) and 1,500; the “Pre-challenge antibody titer, IgG2” value is 40,500 (4×) and 13,500. In addition, in test [2], the “worm burdens, Maximum” value is listed as 237.00; the “worm burdens, Minimum” value stood at 146.00; the “worm burdens, Mean” value came out at 187.800; the “worm burdens, Median” value was 167.0000. In test [2], the “worm burden, Colon, Male, Average” value is given as 5; the “worm burden, Colon, Female, Average” value came out at 12; the “worm burden, Intestine, Female, Average” value is given as 83; the “worm burden, Intestine, Male, Average” value was determined as 87. Also, in test [2], the “worm burden, Total, Average” value was 188; the “worm burden, Colon, Female” value was 3 and 1 and 12 and 24 and 21; the “worm burden, Colon, Male” value is 3 and 0 and 2 and 9 and 10; the “worm burden, Intestine, Female” value was 86 and 83 and 66 and 91 (2×). In addition, in test [2], the “worm burden, Intestine, Male” value is 54 and 83 and 80 and 105 and 115; the “worm burden, Total” value was 146 and 167 and 160 and 229 and 237. In test [2] (relative to the control group), the “fecal eggs (fecundity), in words” value is recorded as “significant reduction in fecal eggs”. The “worm burden, in words” value in test [2] (versus AS03 control) is listed as “no remarkable reduction in worm burden”.

B2: Ac-MEP-1: A. caninum metalloendopeptidase antigen, SEQ ID NO: 14 (protein, listed as Ancylostoma caninum)
chain: MAKLLEVTTGLVVLLGVLGVISVVFNVLTWLKLNENKDDSSPAPKIWNVGEQDNTPVLTNLLVLEKEELAAKLKKTPYEEVDEQTVRQSSVMKLRNIKNALFTIEPVASALPPLRVNDPKYCPSYGEPDKKYAYQEAASYLLSGLDQTVDPCEDLYAFTCNTYLRNHNATDIGVNRIGTYKDAQDDVNAEIVEALEEVNVSDTKWSETERLVKATLFTCVHHTRARKPIDNSKNVLIEMRDLFGGIPFLNHTLKKDIDFFDIMGKFEQNHAMGTLLGAMVSVDFKNVNKHSLFLSQPYLPMARDFYVFPQHTKMVENRVSLINSVLRSFAEAVLDDPSPYLDLMSRSARDVVKLEMQIAMASWPESELRNYAQQHNPRTLNQLKAAYPAIKWDSYFNALLSSVQGVDMNRQNIILTQPSYFGWLNALFNGGADDKTIANYLLVHLILEEADFLGGALKTMVQKSDYVPYALGRGKGVTRVGQQLTRSHDDTVEDANIQCLNSMMTYMPFGPGYVYVKSRKNRDDVVKDIEHQTELVFKNFVNMIGNLNWMTDASLELAMEKADTMVKNYGWPKDLFGNFRDSSKIDAYHKKDYGNIINLYKENITHNYYHIRRTMIKGYSNHESLRLLTEAPKRDHFLLSPALVNAWYIPERNSIAFPYAFWNPPYYNYEYPQACNYAGQGGTAGHELVHGFDDQGVQFAADGSLSDCTWIECGWLEEKSKKGFSDMAQCVVTQYSTQCCPQTGGVTHCANGATTQGENIADLGGQLAAYRAYREYITKERGEEEKRLPGLEQYTPNQIFWITYGYSWCMSQTDSSLIRQLLTDVHSPGSCRVNQVMQDIPEFALDFGCTMGQKMYPEPEQRCPVWVAE
Regarding B2, the “antibody response, in words” value in test [1] is “weak”. Also, in test [1] (geometric mean of group), the “Pre-challenge antibody titer, IgG1, GEOMEAN” value is on record as 100 and the “Pre-challenge antibody titer, IgG2, GEOMEAN” value is reported as 1,204. Further, in test [1] (individual dogs), the “Pre-challenge antibody titer, IgG1” value came to 100; the “Pre-challenge antibody titer, IgG2” value is 1,500 (4×) and 500. Besides, in test [2], the “worm burdens, Maximum” value is listed as 293.00; the “worm burdens, Minimum” value turned out to be 109.00; the “worm burdens, Mean” value is recorded as 183.4000; the “worm burdens, Median” value worked out at 129.0000. Further, in test [2], the “worm burden, Colon, Male, Average” value is 3; the “worm burden, Colon, Female, Average” value came out at 6; the “worm burden, Intestine, Female, Average” value was 91; the “worm burden, Intestine, Male, Average” value is 87. In test [2], the “worm burden, Total, Average” value worked out at 183; the “worm burden, Colon, Female” value is 0 and 2 and 7 and 9 and 12; the “worm burden, Colon, Male” value was 0 and 1 and 2 and 5 and 8; the “worm burden, Intestine, Female” value was 64 and 58 and 153 and 130 and 50. For the same molecule, in test [2], the “worm burden, Intestine, Male” value was 65 and 47 and 131 and 124 and 49; the “worm burden, Total” value was 129 and 108 and 293 and 268 and 119. Moreover, in test [2] (versus control mean), the “worm burden reductions in three out of the five vaccinated dogs” value was “exceeded 36%”.

The values are drawn from patent US7303752B2, “Hookworm vaccine” (The George Washington University, priority 2001, dated 2007).
